Data: patent US20230174608A1 (published 2023)

Columns and labels:
[1] = biological target: GLP-1 receptor (GLP-1R), stably expressed on HEK293 cells; experiment: cell-based or functional assay
[2] = biological target: Glucagon receptor (GCGR), stably expressed on HEK293 cells; experiment: cell-based or functional assay

B1: dgc003 (peptide)
peptide: HXQGTFTSDYSKYLDERAAKEFIAWLEAGG
HELM: PEPTIDE1{H.[Aib].Q.G.T.F.T.S.D.Y.S.K.Y.L.D.E.R.A.A.K.E.F.I.A.W.L.E.A.G.G.[am]}|PEPTIDE2{[CCCCCCCCCCCCCCCC(=O)[*:2]].[gGlu]}$PEPTIDE1,PEPTIDE2,20:R3-2:R2$$$V2.0; N-terminus assumed
SMILES: CCCCCCCCCCCCCCCC(=O)N[C@@H](CCC(=O)NCCCC[C@H](NC(=O)[C@H](C)NC(=O)[C@H](C)NC(=O)[C@H](CCCNC(=N)N)NC(=O)[C@H](CCC(=O)O)NC(=O)[C@H](CC(=O)O)NC(=O)[C@H](CC(C)C)NC(=O)[C@H](Cc1ccc(O)cc1)NC(=O)[C@H](CCCCN)NC(=O)[C@H](CO)NC(=O)[C@H](Cc1ccc(O)cc1)NC(=O)[C@H](CC(=O)O)NC(=O)[C@H](CO)NC(=O)[C@@H](NC(=O)[C@H](Cc1ccccc1)NC(=O)[C@@H](NC(=O)CNC(=O)[C@H](CCC(N)=O)NC(=O)C(C)(C)NC(=O)[C@@H](N)Cc1c[nH]cn1)[C@@H](C)O)[C@@H](C)O)C(=O)N[C@@H](CCC(=O)O)C(=O)N[C@@H](Cc1ccccc1)C(=O)N[C@H](C(=O)N[C@@H](C)C(=O)N[C@@H](Cc1c[nH]c2ccccc12)C(=O)N[C@@H](CC(C)C)C(=O)N[C@@H](CCC(=O)O)C(=O)N[C@@H](C)C(=O)NCC(=O)NCC(N)=O)[C@@H](C)CC)C(=O)O
[1]
  GLP-1R (nM EC50), receptor-mediated cAMP production in HEK293 cells: 0.291 nM
[2]
  GCGR (nM EC50), receptor-mediated cAMP production in HEK293 cells: 1.04 nM
